Results as given in IntAct's records for PubMed 16820411.

B1: Intercellular adhesion molecule 5 (Homo sapiens), Q9UMF0 (parent)
chain: MPGPSPGLRRALLGLWAALGLGLFGLSAVSQEPFWADLQPRVAFVERGGSLWLNCSTNCPRPERGGLETSLRRNGTQRGLRWLARQLVDIREPETQPVCFFRCARRTLQARGLIRTFQRPDRVELMPLPPWQPVGENFTLSCRVPGAGPRASLTLTLLRGAQELIRRSFAGEPPRARGAVLTATVLARREDHGANFSCRAELDLRPHGLGLFENSSAPRELRTFSLSPDAPRLAAPRLLEVGSERPVSCTLDGLFPASEARVYLALGDQNLSPDVTLEGDAFVATATATASAEQEGARQLVCNVTLGGENRETRENVTIYSFPAPLLTLSEPSVSEGQMVTVTCAAGAQALVTLEGVPAAVPGQPAQLQLNATENDDRRSFFCDATLDVDGETLIKNRSAELRVLYAPRLDDSDCPRSWTWPEGPEQTLRCEARGNPEPSVHCARSDGGAVLALGLLGPVTRALSGTYRCKAANDQGEAVKDVTLTVEYAPALDSVGCPERITWLEGTEASLSCVAHGVPPPDVICVRSGELGAVIEGLLRVAREHAGTYRCEATNPRGSAAKNVAVTVEYGPRFEEPSCPSNWTWVEGSGRLFSCEVDGKPQPSVKCVGSGGATEGVLLPLAPPDPSPRAPRIPRVLAPGIYVCNATNRHGSVAKTVVVSAESPPEMDESTCPSHQTWLEGAEASALACAARGRPSPGVRCSREGIPWPEQQRVSREDAGTYHCVATNAHGTDSRTVTVGVEYRPVVAELAASPPGGVRPGGNFTLTCRAEAWPPAQISWRAPPGALNIGLSSNNSTLSVAGAMGSHGGEYECAATNAHGRHARRITVRVAGPWLWVAVGGAAGGAALLAAGAGLAFYVQSTACKKGEYNVQEAESSGEAVCLNGAGGGAGGAAGAEGGPEAAGGAAESPAEGEVFAIQLTSA

Variants of: B1
Conditions: with actn1_chick ACTN1, P05094
actn1_chick ACTN1, P05094, sequence (P05094 whole entry): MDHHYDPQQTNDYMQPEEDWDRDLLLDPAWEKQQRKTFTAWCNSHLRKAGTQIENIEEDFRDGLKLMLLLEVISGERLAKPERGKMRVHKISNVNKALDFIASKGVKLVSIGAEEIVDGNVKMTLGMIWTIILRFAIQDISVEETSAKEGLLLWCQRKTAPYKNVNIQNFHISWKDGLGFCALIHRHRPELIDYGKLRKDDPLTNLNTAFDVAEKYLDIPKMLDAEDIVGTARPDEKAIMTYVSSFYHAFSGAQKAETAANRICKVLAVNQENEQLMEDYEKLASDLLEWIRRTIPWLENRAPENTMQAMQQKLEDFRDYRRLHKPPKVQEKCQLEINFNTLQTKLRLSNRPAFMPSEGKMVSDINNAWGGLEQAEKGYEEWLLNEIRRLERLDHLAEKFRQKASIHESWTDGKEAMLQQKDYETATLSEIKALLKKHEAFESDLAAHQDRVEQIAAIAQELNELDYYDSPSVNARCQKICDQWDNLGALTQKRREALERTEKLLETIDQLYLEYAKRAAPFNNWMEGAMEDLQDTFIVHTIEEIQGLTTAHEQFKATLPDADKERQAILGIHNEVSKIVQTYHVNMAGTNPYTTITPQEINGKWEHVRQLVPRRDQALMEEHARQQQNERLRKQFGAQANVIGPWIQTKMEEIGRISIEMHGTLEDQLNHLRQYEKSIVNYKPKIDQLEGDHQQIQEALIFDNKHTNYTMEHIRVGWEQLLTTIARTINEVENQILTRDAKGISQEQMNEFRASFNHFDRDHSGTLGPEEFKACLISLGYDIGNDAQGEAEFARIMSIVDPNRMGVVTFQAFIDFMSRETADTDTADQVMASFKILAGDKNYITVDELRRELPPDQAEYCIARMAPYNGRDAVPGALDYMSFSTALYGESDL

Variant	effect of a mutation on the interaction
K866A;K867A	disrupting interaction
K866A	decreasing interaction
K866R	decreasing interaction

The remaining lines, values ahead:

effect of a mutation on the interaction	Variant
decreasing interaction	K867R
disrupting interaction	K867A
